{
  "source": "patent US20200148733A1",
  "molecular_target": "human IL-23 (human) (UniProt Q9NPF7)",
  "sequence (Q9NPF7 20-189, chain 1 of 2)": "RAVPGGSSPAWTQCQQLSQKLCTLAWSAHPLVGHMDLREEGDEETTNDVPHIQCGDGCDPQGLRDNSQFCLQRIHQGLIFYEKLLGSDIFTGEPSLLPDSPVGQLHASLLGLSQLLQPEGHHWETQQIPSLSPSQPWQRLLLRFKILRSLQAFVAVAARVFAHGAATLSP",
  "sequence (P29460 23-328, chain 2 of 2, further chain)": "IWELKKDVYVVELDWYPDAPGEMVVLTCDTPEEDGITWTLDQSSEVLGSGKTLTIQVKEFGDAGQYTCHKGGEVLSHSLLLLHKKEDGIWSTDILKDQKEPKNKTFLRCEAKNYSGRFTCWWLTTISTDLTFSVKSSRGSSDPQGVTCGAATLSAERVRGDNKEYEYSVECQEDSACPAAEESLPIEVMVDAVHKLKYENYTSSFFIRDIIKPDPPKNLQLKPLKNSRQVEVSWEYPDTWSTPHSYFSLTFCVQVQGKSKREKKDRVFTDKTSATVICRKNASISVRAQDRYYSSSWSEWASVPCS",
  "assay": "cell-based or functional assay",
  "data": [
    {"substance": "benchmark antibody ustekinumab (Stelara, obtained from Janssen-Cilag)", "values": [
      {"measurement": "EC50 [nM] AVERAGE, hIL-23-induced proliferation of Ba/F3 cells expressing hIL-23R and hIL-12Rβ1", "value": 2.4, "unit": "nM"},
      {"measurement": "EC50 [nM] Exp 1, hIL-23-induced proliferation of Ba/F3 cells expressing hIL-23R and hIL-12Rβ1", "value": 1.9, "unit": "nM"},
      {"measurement": "EC50 [nM] Exp 2, hIL-23-induced proliferation of Ba/F3 cells expressing hIL-23R and hIL-12Rβ1", "value": 2.3, "unit": "nM"},
      {"measurement": "EC50 [nM] Exp 3, hIL-23-induced proliferation of Ba/F3 cells expressing hIL-23R and hIL-12Rβ1", "value": 3.5, "unit": "nM"},
      {"measurement": "EC50 [nM] Exp 4, hIL-23-induced proliferation of Ba/F3 cells expressing hIL-23R and hIL-12Rβ1", "value": 2, "unit": "nM"},
      {"measurement": "IC50, hIL-23-induced proliferation of Ba/F3 cells expressing hIL-23R and hIL-12Rβ1", "value": 11.1, "unit": "nM"}
    ]}
  ]
}
